We go through one substance from PMC11118710, “GLP-1 and Its Derived Peptides Mediate Pain Relief Through Direct TRPV1 Inhibition Without Affecting Thermoregulation” (Research Square, 2024).

The assay addresses human transient receptor potential vanilloid 1 (TRPV1) (human) (UniProt Q8NER1).

Chain of human transient receptor potential vanilloid 1 (TRPV1) (human) (Q8NER1 whole entry): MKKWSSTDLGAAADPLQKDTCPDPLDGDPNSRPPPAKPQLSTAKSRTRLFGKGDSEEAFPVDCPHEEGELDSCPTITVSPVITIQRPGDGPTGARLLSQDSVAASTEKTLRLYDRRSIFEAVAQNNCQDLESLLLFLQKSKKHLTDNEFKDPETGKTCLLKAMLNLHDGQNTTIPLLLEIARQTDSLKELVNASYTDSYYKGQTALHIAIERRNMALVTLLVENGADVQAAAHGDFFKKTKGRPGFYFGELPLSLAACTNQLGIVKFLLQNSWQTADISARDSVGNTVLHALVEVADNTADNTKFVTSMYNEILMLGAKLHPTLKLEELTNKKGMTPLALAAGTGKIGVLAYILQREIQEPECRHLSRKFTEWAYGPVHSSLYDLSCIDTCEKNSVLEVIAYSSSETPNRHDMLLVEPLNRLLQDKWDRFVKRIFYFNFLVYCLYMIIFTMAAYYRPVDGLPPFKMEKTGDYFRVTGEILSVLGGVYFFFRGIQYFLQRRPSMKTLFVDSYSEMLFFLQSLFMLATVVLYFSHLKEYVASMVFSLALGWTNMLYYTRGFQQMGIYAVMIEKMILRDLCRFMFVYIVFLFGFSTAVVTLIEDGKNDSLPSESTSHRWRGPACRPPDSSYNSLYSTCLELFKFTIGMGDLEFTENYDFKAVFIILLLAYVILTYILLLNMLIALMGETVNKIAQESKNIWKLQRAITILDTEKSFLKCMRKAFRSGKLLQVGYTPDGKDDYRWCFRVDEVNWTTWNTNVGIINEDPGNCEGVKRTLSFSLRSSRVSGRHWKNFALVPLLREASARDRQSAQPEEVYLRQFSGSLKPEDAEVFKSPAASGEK

Consider “exendin-4 (from UniProt P26349 48-87) (peptide)”, for which the IC50 of inhibition of the CAP (100 nM)-induced calcium response in CHO K1 cells expressing human TRPV1 turned out to be 62.2 nM.
